Here are results for two molecules from US20260028608A1.

For experiment [1], the target named is IgG in human serum pool from 100 individuals. Nature of the experiment: cell-based or functional assay.
Experiment [2] addresses Human IgG (fixed concentration, MSD potency assay of Example 4). Nature of the experiment: cell-based or functional assay.

B1: N240, a variant IdeZ polypeptide of the invention (enzyme)
chain: MDDYQRNATEAYAKEVPHQITSVWTKGVTPPEQFTQGEDVIHAPYLAHQGWYDITKAFNGKDDLLCGAATAGNMLHWWFDQNKTEIEAYLSKHPEKQKIIFRNQELFDLKAAIDTKDSQTNSQLFNYFRDKAFPNLSARQLGVMPDLVLDMFINGYYLNVFKTQSTDVNRPYQDKDKRGGIFDAVFTRGNQTTLLTARHDLKNKGLNDISTIIKQELTEGRALALSHTYANVSISHVINLWGADFNAEGNLEAIYVTDSDANASIGMKKYFVGINAHGHVAISAKKIEGENIGAQVLGLFTLSSGKDIWQKLS
In experiment [1], B1 yielded a Relative Potency (%) In Serum, Plate 1 (MSD, from EC50; reference IdeS) of 151%; a Relative Potency (%) In Serum, Plate 1 (MSD, from EC50; reference IdeS; separate dilutions) of 137%; a Relative Potency (%) In Serum, Plate 2 (MSD, from EC50; reference IdeS) of 132%; a Relative Potency (%) In Serum, Plate 2 (MSD, from EC50; reference IdeS; separate dilutions) of 146%. In experiment [1], this molecule displayed a Relative Potency (%) In serum, Mean value (MSD, from EC50; reference IdeS) of 142% and a Relative Potency (%) In serum, Mean value (MSD, from EC50; reference IdeS; separate dilutions) of 142%. Besides, in experiment [2], the mean relative potency (EC50Ref/EC50Test x 100%), MSD potency assay of IgG cleavage is 300%.

B2: pCART239, a variant IdeZ polypeptide of the invention (enzyme)
chain: MDDYQRNATEAYAKEVPHQITSVWTKGVTPPEQFTQGEDVIHAPYLAHQGWYDITKAFNGKDDLLCGAATAGNMLHWWFDQNKTEIEAYLSKHPEKQKIIFRNQELFDLKAAIDTKDSQTNSQLFNYFRDKAFPNLSARQLGVMPDLVLDMFINGYYLNVFKTQSTDVNRPYQDKDKRGGIFDAVFTRGNQTTLLTARHDLKNKGLNDISTIIKQELTEGRALALSHTYANVSISHVINLWGADFNAEGNLEAIYVTDSDANASIGMKKYFVGINAHGHVAISAKKIEGENIGAQVLGLFTLSSGKDIWQKLSGGGHHHHHH
Turning to B2, the enzyme concentration at which all IgG were converted to scIgG, serum pool with 0.1 mg/ml pCART243 (SDS-PAGE) in experiment [1] is 0.5 µg/ml.
